Laboratory results as given in publication PMC10397247.

Tests used:
Assay in all cases: two-hybrid library CCmax;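 further: natural log of median RNA to DNA barcode read ratio; higher means stronger binding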
[1] = biological target: T1, P6-AA-12HAA-T
T1 chain: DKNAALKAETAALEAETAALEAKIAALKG

[2] = biological target: T2, P6-AA-12HAA-Y; settings: mean of both orientations
T2 chain: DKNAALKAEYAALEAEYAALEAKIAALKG

[3] = biological target: T3, P6-AA-12HAA-V; settings: mean of both orientations
T3 chain: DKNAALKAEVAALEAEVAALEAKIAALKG

[4] = biological target: T4, P6-AA-12HAA-D; settings: mean of both orientations
T4 chain: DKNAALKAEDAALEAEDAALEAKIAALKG

[5] = biological target: T5, P6-AA-12HAA-E; settings: mean of both orientations
T5 chain: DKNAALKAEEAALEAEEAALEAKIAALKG

[6] = biological target: T6, APC4436-AA; settings: mean of both orientations
T6 chain: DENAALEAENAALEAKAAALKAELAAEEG

[7] = biological target: T7, 4H807-AA; settings: mean of both orientations
T7 chain: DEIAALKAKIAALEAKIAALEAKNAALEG

[8] = biological target: T8, APC5383-AA; settings: mean of both orientations
T8 chain: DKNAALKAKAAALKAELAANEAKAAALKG

[9] = biological target: T9, APC1015-AA
T9 chain: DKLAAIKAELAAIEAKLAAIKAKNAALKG

[10] = biological target: T10, APC8910-AA; settings: mean of both orientations
T10 chain: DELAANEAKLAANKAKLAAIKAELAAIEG

[11] = biological target: T11, APC3645-AA
T11 chain: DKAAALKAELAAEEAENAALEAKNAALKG

[12] = biological target: T12, P6-AA-12HGe-M; settings: mean of both orientations
T12 chain: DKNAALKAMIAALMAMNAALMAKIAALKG

[13] = biological target: T13, P6-AA-1HGe-Q; settings: mean of both orientations
T13 chain: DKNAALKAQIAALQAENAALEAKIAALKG

[14] = biological target: T14, P6-AA-1HAA-S; settings: mean of both orientations
T14 chain: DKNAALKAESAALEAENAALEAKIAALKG

[15] = biological target: T15, P6-AA-1HGe-S; settings: mean of both orientations
T15 chain: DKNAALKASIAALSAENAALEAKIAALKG

[16] = biological target: T16, P6-AA-1HGe-T; settings: mean of both orientations
T16 chain: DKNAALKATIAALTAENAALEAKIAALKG

[17] = biological target: T17, 4H1809-AA; settings: mean of both orientations
T17 chain: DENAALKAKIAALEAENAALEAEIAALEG

[18] = biological target: T18, 4H971-AA; settings: mean of both orientations
T18 chain: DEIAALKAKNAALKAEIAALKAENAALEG

[19] = biological target: T19, 4H2948-AA; settings: mean of both orientations
T19 chain: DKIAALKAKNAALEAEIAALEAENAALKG

[20] = biological target: T20, 4H1985-AA; settings: mean of both orientations
T20 chain: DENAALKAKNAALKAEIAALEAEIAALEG

[21] = biological target: T21, 4H55-AA; settings: mean of both orientations
T21 chain: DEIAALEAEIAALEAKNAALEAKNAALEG

[22] = biological target: T22, 4H2536-AA; settings: mean of both orientations
T22 chain: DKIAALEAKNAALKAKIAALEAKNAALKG

[23] = biological target: T23, 4H3409-AA; settings: mean of both orientations
T23 chain: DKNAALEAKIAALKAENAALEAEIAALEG

[24] = biological target: T24, 4H816-AA; settings: mean of both orientations
T24 chain: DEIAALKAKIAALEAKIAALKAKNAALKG

[25] = biological target: T25, 4H2985-AA; settings: mean of both orientations
T25 chain: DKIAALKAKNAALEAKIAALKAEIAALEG

[26] = biological target: T26, 4H775-AA; settings: mean of both orientations
T26 chain: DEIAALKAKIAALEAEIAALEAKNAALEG

[27] = biological target: T27, 4H2512-AA; settings: mean of both orientations
T27 chain: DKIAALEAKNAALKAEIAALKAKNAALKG

[28] = biological target: T28, P5-AA-1HGe-Q; settings: mean of both orientations
T28 chain: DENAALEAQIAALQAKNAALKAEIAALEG

[29] = biological target: T29, P5-AA-1HGe-H; settings: mean of both orientations
T29 chain: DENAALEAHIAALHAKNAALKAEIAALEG

[30] = biological target: T30, P5-AA-12HGe-T; settings: mean of both orientations
T30 chain: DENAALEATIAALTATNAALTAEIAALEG

[31] = biological target: T31, P5-AA-1HAA-R; settings: mean of both orientations
T31 chain: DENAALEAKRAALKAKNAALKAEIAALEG

[32] = biological target: T32, P5-AA-1HAA-V; settings: mean of both orientations
T32 chain: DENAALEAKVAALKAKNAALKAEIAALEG

[33] = biological target: T33, P5-AA-1HAA-T
T33 chain: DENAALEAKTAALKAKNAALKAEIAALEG

[34] = biological target: T34, P5-AA-12HGe-E; settings: mean of both orientations
T34 chain: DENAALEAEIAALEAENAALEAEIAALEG

[35] = biological target: T35, P5-AA-1HAA-N; settings: mean of both orientations
T35 chain: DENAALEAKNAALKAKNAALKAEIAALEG

[36] = biological target: T36, 4H1352-AA
T36 chain: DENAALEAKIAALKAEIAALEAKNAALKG

[37] = biological target: T37, Core_NIIN-es_KEKK
T37 chain: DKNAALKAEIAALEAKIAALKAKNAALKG

[38] = biological target: T38, 4H3915-AA; settings: mean of both orientations
T38 chain: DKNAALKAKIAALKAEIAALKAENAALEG

[39] = biological target: T39, 4H324-AA; settings: mean of both orientations
T39 chain: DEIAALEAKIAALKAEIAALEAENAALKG

[40] = biological target: T40, 4H3449-AA; settings: mean of both orientations
T40 chain: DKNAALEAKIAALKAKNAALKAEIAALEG

[41] = biological target: T41, 4H3365-AA; settings: mean of both orientations
T41 chain: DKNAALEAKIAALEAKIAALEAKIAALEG

[42] = biological target: T42, 4H465-AA; settings: mean of both orientations
T42 chain: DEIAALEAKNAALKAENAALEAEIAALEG

**Q.** How did the interaction score [1] turn out when DENAALEAKIAALKAKIAALKAEIAALEG [4H1385-AA] was run?
**A.** 1.61

**Q.** And the interaction score [2]?
**A.** 2.29

**Q.** What about the interaction score [3] of the same binder?
**A.** 2.15

**Q.** And the interaction score [4]?
**A.** -1.1

**Q.** What about the interaction score [5] of the same binder?
**A.** 2.36

**Q.** DENAALKAKIAALEAKNAALEAKIAALEG [4H1845-AA] was tested. Which interaction score [6] did it give?
**A.** -1.83

**Q.** What about the interaction score [7] of the same binder?
**A.** -1.58

**Q.** What about the interaction score [8] of the same binder?
**A.** -1.57

**Q.** And the interaction score [9]?
**A.** -1.28

**Q.** And the interaction score [10]?
**A.** -1.69

**Q.** And the interaction score [11]?
**A.** -1.23

**Q.** How did the interaction score [12] turn out when DENAALEAKIAALKAKNAALKAEIAALEG [4H1401-AA] was run?
**A.** 0.2

**Q.** And the interaction score [13]?
**A.** 2.02

**Q.** And the interaction score [14]?
**A.** 1.9

**Q.** What about the interaction score [15] of the same binder?
**A.** 2.27

**Q.** And the interaction score [16]?
**A.** 2.05

**Q.** With DENAALEAEIAALEAKIAALEAKNAALKG [4H1064-AA] as the binder, how does the interaction score [17] read?
**A.** -1.44

**Q.** And the interaction score [18]?
**A.** -1.08

**Q.** What about the interaction score [19] of the same binder?
**A.** -0.884

**Q.** With DENAALEAKIAALKAEIAALEAKIAALKG [4H1350-AA] as the binder, how does the interaction score [20] read?
**A.** 0.316

**Q.** What about the interaction score [21] of the same binder?
**A.** -1.11

**Q.** And the interaction score [22]?
**A.** -0.188

**Q.** And the interaction score [23]?
**A.** -1.11

**Q.** What about the interaction score [24] of the same binder?
**A.** 1.16

**Q.** And the interaction score [25]?
**A.** 0.636

**Q.** And the interaction score [26]?
**A.** 1.63

**Q.** What about the interaction score [27] of the same binder?
**A.** -0.538

**Q.** With DKNAALKAEIAALEAENAALEAKIAALKG [4H3606-AA] as the binder, how does the interaction score [28] read?
**A.** 2.38

**Q.** And the interaction score [29]?
**A.** 2.15

**Q.** And the interaction score [30]?
**A.** 1.23

**Q.** And the interaction score [31]?
**A.** 2

**Q.** And the interaction score [32]?
**A.** 2.23

**Q.** And the interaction score [33]?
**A.** 1.75

**Q.** And the interaction score [34]?
**A.** 0.858

**Q.** What about the interaction score [35] of the same binder?
**A.** 1.72

**Q.** What does the source list for DENAALEAENAALEAEIAALEAEIAALEG [4H1153-AA]?
**A.** interaction score [36]: 0; interaction score [37]: 1.86

**Q.** With DEIAALEAENAALKAKNAALKAEIAALEG [4H249-AA] as the binder, how does the interaction score [38] read?
**A.** -0.705

**Q.** What about the interaction score [39] of the same binder?
**A.** -1.59

**Q.** And the interaction score [40]?
**A.** -1.43

**Q.** DENAALEAENAALKAKIAALKAEIAALEG [4H1257-AA] was tested. Which interaction score [41] did it give?
**A.** -1.46

**Q.** And the interaction score [42]?
**A.** -0.726
